Data as given in paper PMC8934182.

What was measured:
[1] = biological target: SARS-CoV nucleocapsid (N) protein (SARS-CoV, UniProt P59595 1-422); assay: competition
Interferon-gamma (IFN-γ) = Interferon-gamma (IFN-γ) (UniProt P01579 24-161); assay: competition
SARS-CoV-2 spike S1 = SARS-CoV-2 spike S1 (SARS-CoV-2, UniProt P0DTC2 13-685); assay: 5.0 ng/mL in EIS

Measured: binding result

Sequence of Interferon-gamma (IFN-γ) (P01579 24-161): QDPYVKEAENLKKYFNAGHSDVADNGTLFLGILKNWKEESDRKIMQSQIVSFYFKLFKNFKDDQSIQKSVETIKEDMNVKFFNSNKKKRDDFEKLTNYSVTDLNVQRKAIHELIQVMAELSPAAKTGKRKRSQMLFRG
Sequence of SARS-CoV nucleocapsid (N) protein (P59595 whole entry): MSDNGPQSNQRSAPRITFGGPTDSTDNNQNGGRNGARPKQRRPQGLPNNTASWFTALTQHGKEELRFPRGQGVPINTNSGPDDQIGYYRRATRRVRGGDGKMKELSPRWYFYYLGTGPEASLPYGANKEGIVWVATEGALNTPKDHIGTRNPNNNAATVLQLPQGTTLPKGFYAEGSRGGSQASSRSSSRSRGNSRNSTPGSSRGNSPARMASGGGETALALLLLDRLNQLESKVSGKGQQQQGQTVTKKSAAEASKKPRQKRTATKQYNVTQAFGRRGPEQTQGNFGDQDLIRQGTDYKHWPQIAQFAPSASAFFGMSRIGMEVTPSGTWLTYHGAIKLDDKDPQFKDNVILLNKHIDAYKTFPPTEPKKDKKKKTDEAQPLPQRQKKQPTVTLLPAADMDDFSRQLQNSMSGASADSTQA

B1: N48 aptamer (ssDNA)
DNA: GCTGGATGTCGCTTACGACAATATTCCTTAGGGGCACCGCTACATTGACACATCCAGC
no binding: all assays above
